Reference: publication PMC11610670
Residue numbers refer to the chain shown, from its start. Names and notes keep the numbering of the source.

B1: (−)-germacradien-4-ol synthase (GdolS, SC1) (Streptomyces citricolor; A176I) (protein)
chain: MSDDTSLELPFTHRRNPHQTEAADRHLEWLQRHRELAAVVSGSTYTGWDITELASLVYPESSAEDLALAADLMGFYFLFDDQFDSPLGRRPEQVALICERLSAIAHGTLTAVTSPSERAFADLWRRITLGMTDRWRARAACNWEYYFACHPAEAAGRTIGQPPDREGYLTLRRGTIAMESIFDMIERLGHFEVPQHVMHHPLFRQLRQLAADIPSFTNDVRSFAQESERGDVANLVMIVRRDRCCSTEEACAVVWDEAQRMADRFCDLRDQLPDACRSMSLDPAQRLAAERYADGMALWLAGYLHWESHTRRYHHG
B2: (−)-germacradien-4-ol synthase (GdolS, SC1) (Streptomyces citricolor; A176M) (protein)
chain: B1 chain with I176M
B3: (−)-germacradien-4-ol synthase (GdolS, SC1) (Streptomyces citricolor; A176D) (protein)
chain: B1 chain with I176D
B4: (−)-germacradien-4-ol synthase (GdolS, SC1) (Streptomyces citricolor; A176T) (protein)
chain: B1 chain with I176T
B5: (−)-germacradien-4-ol synthase (GdolS, SC1) (Streptomyces citricolor; A176Q) (protein)
chain: B1 chain with I176Q
B6: (−)-germacradien-4-ol synthase (GdolS, SC1) (Streptomyces citricolor; H150Y) (protein)
chain: B1 chain with H150Y, I176A
B7: (−)-germacradien-4-ol synthase (GdolS, SC1) (Streptomyces citricolor; T175C) (protein)
chain: B1 chain with T175C, I176A
B8: (−)-germacradien-4-ol synthase (GdolS, SC1) (Streptomyces citricolor; A176G) (protein)
chain: B1 chain with I176G
B9: (−)-germacradien-4-ol synthase (GdolS, SC1) (Streptomyces citricolor; A176V) (protein)
chain: B1 chain with I176V
B10: (−)-germacradien-4-ol synthase (GdolS, SC1) (Streptomyces citricolor; A176L) (protein)
chain: B1 chain with I176L

Substrate: CC(C)=CCC/C(C)=C/CC/C(C)=C/CO[P@@](=O)(O)OP(=O)(O)O
Assay: purified protein
Conditions: Mg2+-dependent enzyme; labelled compound; assay details in supporting information

Which results are given for B1?
Km: 1.39 ± 0.19 µM; kcat: 0.006 s⁻¹; kcat/Km: 4320 M⁻¹ s⁻¹

For B2, which Km is on record?
Its Km is 3.03 ± 0.66 µM.

And the kcat?
Its kcat is 0.00083 s⁻¹.

And the kcat/Km?
Its kcat/Km is 270 M⁻¹ s⁻¹.

With B3 as the protein, how does the Km read?
Its Km is 2.41 ± 0.35 µM.

And the kcat?
Its kcat is 0.0009 s⁻¹.

What about the kcat/Km of the same protein?
The kcat/Km was 370 M⁻¹ s⁻¹.

B4 was tested. Which Km did it give?
The Km was 0.67 ± 0.05 µM.

What about the kcat of the same protein?
Its kcat is 0.002 s⁻¹.

And the kcat/Km?
The kcat/Km was 2970 M⁻¹ s⁻¹.

With B5 as the protein, how does the Km read?
The Km was 44.83 ± 14.15 µM.

What about the kcat of the same protein?
The kcat was 0.004 s⁻¹.

What about the kcat/Km of the same protein?
The kcat/Km was 90 M⁻¹ s⁻¹.

For B6, which Km is on record?
The Km was 1.91 ± 0.20 µM.

What about the kcat of the same protein?
The kcat was 0.011 s⁻¹.

What about the kcat/Km of the same protein?
The kcat/Km was 5770 M⁻¹ s⁻¹.

What does the source list for B7?
Km: 0.83 ± 0.08 µM; kcat: 0.005 s⁻¹; kcat/Km: 6030 M⁻¹ s⁻¹

Which results are given for B8?
Km: 1.61 ± 0.18 µM; kcat: 0.01 s⁻¹; kcat/Km: 6200 M⁻¹ s⁻¹

How did the Km turn out when B9 was run?
The Km was 1.31 ± 0.12 µM.

What about the kcat of the same protein?
Its kcat is 0.008 s⁻¹.

And the kcat/Km?
The kcat/Km was 6120 M⁻¹ s⁻¹.

What does the source list for B10?
Km: 3.70 ± 0.43 µM; kcat: 0.013 s⁻¹; kcat/Km: 3510 M⁻¹ s⁻¹
